Ends that are not written are not given here.
Legend:
CXCL6 = CXCL6 (human, UniProt P80162 38-114); assay: cell-based or functional assay
CCL8 = molecular target: T1, CCL8 (human, UniProt P80075 24-99); assay: cell-based or functional assay
T1 sequence (looked up): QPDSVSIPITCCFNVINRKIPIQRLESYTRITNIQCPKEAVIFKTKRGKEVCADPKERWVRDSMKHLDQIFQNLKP

EEDDYTAYAPLTCYFT-NH2 [HD2 synthetic peptide]
IC50 (median of biological replicates) of inhibition of CXCL6-induced cell migration, chemokine at EC80 (CXCL6): 1.4e-05 molar | IC50 (median of biological replicates) of inhibition of CCL8-induced cell migration, chemokine at EC80 (CCL8): 1.9e-08 molar

From paper PMC10505172, “Discovery and pharmacophoric characterization of chemokine network inhibitors using phage-display, saturation mutagenesis and computational modelling” (Nature Communications, 2023)
